{"source": "patent US20180118786A1", "about": "(published 2018)", "binders": {"B1": {"name": "peptide 5 (peptide 2, Phe3 to leucine) (peptide)", "peptide": "RCLRLPCRQLRCRW-NH2", "modifications": "linker 2-7-12 via TATA; N-terminus assumed", "SMILES": "CC(C)C[C@@H]1NC(=O)[C@H](CCC(N)=O)NC(=O)[C@H](CCCNC(=N)N)NC(=O)[C@@H]2CSCCC(=O)N3CN(CN(C3)C(=O)CCSC[C@H](NC(=O)[C@@H](N)CCCNC(=N)N)C(=O)N[C@@H](CC(C)C)C(=O)N[C@@H](CCCNC(=N)N)C(=O)N[C@@H](CC(C)C)C(=O)N3CCC[C@H]3C(=O)N2)C(=O)CCSC[C@@H](C(=O)N[C@@H](CCCNC(=N)N)C(=O)N[C@@H](Cc2c[nH]c3ccccc23)C(N)=O)NC(=O)[C@H](CCCNC(=N)N)NC1=O"}, "B2": {"name": "peptide 4 (peptide 2, Phe3 to tyrosine) (peptide)", "peptide": "RCYRLPCRQLRCRW-NH2", "modifications": "linker 2-7-12 via TATA; N-terminus assumed", "SMILES": "CC(C)C[C@@H]1NC(=O)[C@H](CCC(N)=O)NC(=O)[C@H](CCCNC(=N)N)NC(=O)[C@@H]2CSCCC(=O)N3CN(CN(C3)C(=O)CCSC[C@H](NC(=O)[C@@H](N)CCCNC(=N)N)C(=O)N[C@@H](Cc3ccc(O)cc3)C(=O)N[C@@H](CCCNC(=N)N)C(=O)N[C@@H](CC(C)C)C(=O)N3CCC[C@H]3C(=O)N2)C(=O)CCSC[C@@H](C(=O)N[C@@H](CCCNC(=N)N)C(=O)N[C@@H](Cc2c[nH]c3ccccc23)C(N)=O)NC(=O)[C@H](CCCNC(=N)N)NC1=O"}, "B3": {"name": "peptide 15 (peptide 2, Pro6 to alanine) (peptide)", "peptide": "RCFRLACRQLRCRW-NH2", "modifications": "linker 2-7-12 via TATA; N-terminus assumed", "SMILES": "CC(C)C[C@@H]1NC(=O)[C@H](CCCNC(=N)N)NC(=O)[C@H](Cc2ccccc2)NC(=O)[C@@H](NC(=O)[C@@H](N)CCCNC(=N)N)CSCCC(=O)N2CN3CN(C2)C(=O)CCSC[C@@H](C(=O)N[C@@H](CCCNC(=N)N)C(=O)N[C@@H](Cc2c[nH]c4ccccc24)C(N)=O)NC(=O)[C@H](CCCNC(=N)N)NC(=O)[C@H](CC(C)C)NC(=O)[C@H](CCC(N)=O)NC(=O)[C@H](CCCNC(=N)N)NC(=O)[C@H](CSCCC3=O)NC(=O)[C@H](C)NC1=O"}, "B4": {"name": "peptide 18 (peptide 2, Pro6 to leucine) (peptide)", "peptide": "RCFRLLCRQLRCRW-NH2", "modifications": "linker 2-7-12 via TATA; N-terminus assumed", "SMILES": "CC(C)C[C@@H]1NC(=O)[C@H](CCC(N)=O)NC(=O)[C@H](CCCNC(=N)N)NC(=O)[C@@H]2CSCCC(=O)N3CN(CN(C3)C(=O)CCSC[C@H](NC(=O)[C@@H](N)CCCNC(=N)N)C(=O)N[C@@H](Cc3ccccc3)C(=O)N[C@@H](CCCNC(=N)N)C(=O)N[C@@H](CC(C)C)C(=O)N[C@@H](CC(C)C)C(=O)N2)C(=O)CCSC[C@@H](C(=O)N[C@@H](CCCNC(=N)N)C(=O)N[C@@H](Cc2c[nH]c3ccccc23)C(N)=O)NC(=O)[C@H](CCCNC(=N)N)NC1=O"}, "B5": {"name": "FXII618 variant with P in position six replaced by S (peptide)", "peptide": "RCFRLSCRQLRCRW-NH2", "modifications": "linker 2-7-12 via TATA; N-terminus assumed", "SMILES": "CC(C)C[C@@H]1NC(=O)[C@H](CCC(N)=O)NC(=O)[C@H](CCCNC(=N)N)NC(=O)[C@@H]2CSCCC(=O)N3CN(CN(C3)C(=O)CCSC[C@H](NC(=O)[C@@H](N)CCCNC(=N)N)C(=O)N[C@@H](Cc3ccccc3)C(=O)N[C@@H](CCCNC(=N)N)C(=O)N[C@@H](CC(C)C)C(=O)N[C@@H](CO)C(=O)N2)C(=O)CCSC[C@@H](C(=O)N[C@@H](CCCNC(=N)N)C(=O)N[C@@H](Cc2c[nH]c3ccccc23)C(N)=O)NC(=O)[C@H](CCCNC(=N)N)NC1=O"}, "B6": {"name": "peptide 83 (FXII618, Arg8 to glycine) (peptide)", "peptide": "RCFRLPCGQLRCR-NH2", "modifications": "linker 2-7-12 via TATA; N-terminus assumed", "SMILES": "CC(C)C[C@@H]1NC(=O)[C@H](CCC(N)=O)NC(=O)CNC(=O)[C@@H]2CSCCC(=O)N3CN(CN(C3)C(=O)CCSC[C@H](NC(=O)[C@@H](N)CCCNC(=N)N)C(=O)N[C@@H](Cc3ccccc3)C(=O)N[C@@H](CCCNC(=N)N)C(=O)N[C@@H](CC(C)C)C(=O)N3CCC[C@H]3C(=O)N2)C(=O)CCSC[C@@H](C(=O)N[C@@H](CCCNC(=N)N)C(N)=O)NC(=O)[C@H](CCCNC(=N)N)NC1=O"}, "B7": {"name": "peptide 21 (peptide 2, Gln9 to aspartate) (peptide)", "peptide": "RCFRLPCRDLRCRW-NH2", "modifications": "linker 2-7-12 via TATA; N-terminus assumed", "SMILES": "CC(C)C[C@@H]1NC(=O)[C@H](CC(=O)O)NC(=O)[C@H](CCCNC(=N)N)NC(=O)[C@@H]2CSCCC(=O)N3CN(CN(C3)C(=O)CCSC[C@H](NC(=O)[C@@H](N)CCCNC(=N)N)C(=O)N[C@@H](Cc3ccccc3)C(=O)N[C@@H](CCCNC(=N)N)C(=O)N[C@@H](CC(C)C)C(=O)N3CCC[C@H]3C(=O)N2)C(=O)CCSC[C@@H](C(=O)N[C@@H](CCCNC(=N)N)C(=O)N[C@@H](Cc2c[nH]c3ccccc23)C(N)=O)NC(=O)[C@H](CCCNC(=N)N)NC1=O"}}, "note": "Starred links: 1 amine or outer side, 2 acyl side, 3 side chain; linkers in the order of their positions; H or OH if unused. Positions of bridges follow the written chain, without caps; N, C: chain ends. Non-standard residues stand in square brackets, D forms with d. No end group written: not given here. TATA = O=C(CC[*:1])N1CN(C(=O)CC[*:2])CN(C(=O)CC[*:3])C1; Bta = N[C@@H](Cc1csc2ccccc12)C(=O)O; βAla = NCCC(=O)O"}
{"target": "T1, human β-FXIIa (HFXIIAB; Molecular Innovations) (human, UniProt P00748 354-362; P00748 373-615)", "T1 chain 1": "NGPLSCGQR", "T1 chain 2": "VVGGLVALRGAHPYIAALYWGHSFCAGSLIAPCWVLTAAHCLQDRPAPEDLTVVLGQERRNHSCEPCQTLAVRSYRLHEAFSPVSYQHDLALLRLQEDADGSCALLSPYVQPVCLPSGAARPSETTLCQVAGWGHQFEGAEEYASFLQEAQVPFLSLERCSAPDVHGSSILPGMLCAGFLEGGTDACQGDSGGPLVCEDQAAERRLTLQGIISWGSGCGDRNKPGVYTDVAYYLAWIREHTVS", "test": "enzyme inhibition", "units": {"Ki": "nM"}}
{"binder": "RCPRLPCAQLRCE", "note": "[FXII609]", "Ki": 123}
{"binder": "RCFRLPCAQLRCE", "note": "[FXII608]", "Ki": 44}
{"binder": "RCPRLPCAQLSCE", "note": "[FXII607]", "Ki": 985}
{"binder": "RCFRLPCWQLSCE", "note": "[FXII615]", "Ki": 246}
{"binder": "RCFRLPCEQLSCE", "note": "[FXII612]", "Ki": 63}
{"binder": "RCFRLPCSQLSCE", "note": "[FXII613]", "Ki": 62}
{"binder": "RCFRLPCAQLRCR", "note": "[FXII617]", "Ki": 25}
{"binder": "RCFRLPCRQLSCE", "note": "[FXII614]", "Ki": 39}
{"binder": "RCFRLPCRQLRCA", "note": "[FXII616]", "Ki": 31}
{"binder": "ACFRLPCAQLSCE", "note": "[FXII610]", "Ki": 231}
{"target": "T1, human β-FXIIa (HFXIIAB; Molecular …)", "test": "enzyme inhibition", "remark": "another data set of the same source", "units": {"Ki": "nM"}}
{"binder": "B1", "Ki": 70}
{"binder": "RC[Bta]RLPCRQLRCRW-NH2 (linker 2-7-12 via TATA)", "note": "[FXII618 variant with F in position three replaced by 3-benzothienylalanine]", "Ki": 23}
{"binder": "B2", "Ki": 82}
{"target": "T1, human β-FXIIa (HFXIIAB; Molecular …)", "test": "enzyme inhibition", "remark": "another data set of the same source", "units": {"Ki": "nM"}}
{"binder": "RCFRLDCRQLRCR", "note": "[Pro6 Aspartic acid (20)]", "Ki": 307}
{"binder": "B3", "Ki": 50}
{"binder": "RCFRLNCRQLRCR", "note": "[Pro6 Asparagine (19)]", "Ki": 264}
{"binder": "RCFRLVCRQLRCR", "note": "[Pro6 Valine (17)]", "Ki": 119}
{"binder": "B4", "Ki": 20}
{"binder": "B5", "Ki": 75}
{"target": "T1, human β-FXIIa (HFXIIAB; Molecular …)", "test": "enzyme inhibition", "remark": "another data set of the same source", "units": {"Ki": "nM"}}
{"binder": "RCFRLPCRHLRCR", "note": "[Gln9 Histidine (24)]", "Ki": "> 10000"}
{"binder": "RCFRLPC[βAla]QLRCR-NH2 (linker 2-7-12 via TATA; not fully specified)", "note": "[peptide 82 (FXII618, Arg8 to β-alanine)]", "Ki": 755}
{"binder": "RCFRLPCRNLRCR", "note": "[Gln9 Asparagine (22)]", "Ki": 2550}
{"binder": "RCFRLPCRELRCR", "note": "[Gln9 Glutamic acid (23)]", "Ki": "> 10000"}
{"binder": "B6", "Ki": 52}
{"binder": "B7", "Ki": 1400}
{"target": "T1, human β-FXIIa (HFXIIAB; Molecular …)", "test": "enzyme inhibition; TATA-cyclized", "units": {"Ki": "nM"}}
{"binder": "RCWGACLNVCS", "note": "[FXII502]", "Ki": 1200}
{"binder": "ACWGAAQRCKVMQGECG", "note": "[FXII528]", "Ki": 3700}
{"binder": "LCSRLPCEQLPCN", "note": "[FXII514]", "Ki": 10200}
{"binder": "ACWGAALSCNPQGSRCG", "note": "[FXII527]", "Ki": 8500}
{"binder": "LCPRLSCHQLGCS", "note": "[FXII515]", "Ki": 2500}
{"binder": "RCWYGCVPQCY", "note": "[FXII509]", "Ki": 1000}
{"binder": "ACWGACQNVCR", "note": "[FXII506]", "Ki": 6300}
{"binder": "GCCYLRYLCS", "note": "[FXII513]", "Ki": 350}
{"binder": "VCWGACLNVCP", "note": "[FXII504]", "Ki": 1900}
{"binder": "ACWGAASACQQGGAKCG", "note": "[FXII534]", "Ki": 2400}
